{"source": "paper PMC2745200", "about": "(Biochimie, 2009)", "proteins": {"B1": {"name": "human ω-amidase/Nit2 (nitrilase-like protein 2) (enzyme, UniProt Q9NQR4 1-276, looked up)", "chain": "MTSFRLALIQLQISSIKSDNVTRACSFIREAATQGAKIVSLPECFNSPYGAKYFPEYAEKIPGESTQKLSEVAKECSIYLIGGSIPEEDAGKLYNTCAVFGPDGTLLAKYRKIHLFDIDVPGKITFQESKTLSPGDSFSTFDTPYCRVGLGICYDMRFAELAQIYAQRGCQLLVYPGAFNLTTGPAHWELLQRSRAVDNQVYVATASPARDDKASYVAWGHSTVVNPWGEVLAKAGTEEAIVYSDIDLKKLAEIRQQIPVFRQKRSDLYAVEMKKP"}}, "target": "the molecule itself", "assay": "SEC", "data": [{"protein": "B1", "values": [{"measurement": "stoichiometry N", "value": 2}]}]}
